Measurements taken from PMC4148589 (Journal of cell science, 2013).
Blank lines part the entries; values can stand above or below the binder they belong to.

Key:
Experiment in all cases: FRAP
[1] = target: CaV1.1 α1S with deletion of amino acid 344 (pc-α1Sdel1(Δ344)) (UniProt P07293 1-1873, Δ344)
[2] = target: CaV1.2 α1C subunit, untagged (pβA-α1C) (UniProt P22002-5 1-2142)
[3] = target: CaV1.1 α1S with deletion of amino acids 344–346 (pc-α1Sdel3(Δ344–346)) (UniProt P07293 1-1873, Δ344–346)
[4] = target: CaV1.1 α1S with deletion of amino acids 344–345 (pc-α1Sdel2(Δ344–345)) (UniProt P07293 1-1873, Δ344–345)
[5] = target: CaV1.1 α1S subunit, untagged (pc-α1S) (UniProt P07293 1-1873)

R75 (fractional fluorescence recovery 75 s after bleaching) [1]: 20.9%
R75 (fractional fluorescence recovery 75 s after bleaching) [3]: 22.8%
R75 (fractional fluorescence recovery 75 s after bleaching) [4]: 19.9%
B1: skeletal muscle β1a subunit, GFP-tagged (pcDNA3-β1a-GFP) (natural protein)
chain: not shown
R75 (fractional fluorescence recovery 75 s after bleaching) [2]: 23.6%

R75 (fractional fluorescence recovery 75 s after bleaching) [5]: 45.2%
B2: β1a subunit with the substitution M293A, GFP-tagged (pcDNA3-β1aM293A-GFP) (natural protein)
chain: not shown
